In this experiment the target is IGF-1R, endogenous, on cultured cells (HT-1080, Colo205, peripheral blood fibrocytes) (human, UniProt P08069 31-1367). Briefly: cell-based or functional assay.

The source of these data is patent publication US20250084434A1 (KRIYA THERAPEUTICS, published 2025).

IGF-1R, endogenous, on cultured cells (HT-1080, Colo205, peripheral blood fibrocytes), sequence (P08069 31-1367): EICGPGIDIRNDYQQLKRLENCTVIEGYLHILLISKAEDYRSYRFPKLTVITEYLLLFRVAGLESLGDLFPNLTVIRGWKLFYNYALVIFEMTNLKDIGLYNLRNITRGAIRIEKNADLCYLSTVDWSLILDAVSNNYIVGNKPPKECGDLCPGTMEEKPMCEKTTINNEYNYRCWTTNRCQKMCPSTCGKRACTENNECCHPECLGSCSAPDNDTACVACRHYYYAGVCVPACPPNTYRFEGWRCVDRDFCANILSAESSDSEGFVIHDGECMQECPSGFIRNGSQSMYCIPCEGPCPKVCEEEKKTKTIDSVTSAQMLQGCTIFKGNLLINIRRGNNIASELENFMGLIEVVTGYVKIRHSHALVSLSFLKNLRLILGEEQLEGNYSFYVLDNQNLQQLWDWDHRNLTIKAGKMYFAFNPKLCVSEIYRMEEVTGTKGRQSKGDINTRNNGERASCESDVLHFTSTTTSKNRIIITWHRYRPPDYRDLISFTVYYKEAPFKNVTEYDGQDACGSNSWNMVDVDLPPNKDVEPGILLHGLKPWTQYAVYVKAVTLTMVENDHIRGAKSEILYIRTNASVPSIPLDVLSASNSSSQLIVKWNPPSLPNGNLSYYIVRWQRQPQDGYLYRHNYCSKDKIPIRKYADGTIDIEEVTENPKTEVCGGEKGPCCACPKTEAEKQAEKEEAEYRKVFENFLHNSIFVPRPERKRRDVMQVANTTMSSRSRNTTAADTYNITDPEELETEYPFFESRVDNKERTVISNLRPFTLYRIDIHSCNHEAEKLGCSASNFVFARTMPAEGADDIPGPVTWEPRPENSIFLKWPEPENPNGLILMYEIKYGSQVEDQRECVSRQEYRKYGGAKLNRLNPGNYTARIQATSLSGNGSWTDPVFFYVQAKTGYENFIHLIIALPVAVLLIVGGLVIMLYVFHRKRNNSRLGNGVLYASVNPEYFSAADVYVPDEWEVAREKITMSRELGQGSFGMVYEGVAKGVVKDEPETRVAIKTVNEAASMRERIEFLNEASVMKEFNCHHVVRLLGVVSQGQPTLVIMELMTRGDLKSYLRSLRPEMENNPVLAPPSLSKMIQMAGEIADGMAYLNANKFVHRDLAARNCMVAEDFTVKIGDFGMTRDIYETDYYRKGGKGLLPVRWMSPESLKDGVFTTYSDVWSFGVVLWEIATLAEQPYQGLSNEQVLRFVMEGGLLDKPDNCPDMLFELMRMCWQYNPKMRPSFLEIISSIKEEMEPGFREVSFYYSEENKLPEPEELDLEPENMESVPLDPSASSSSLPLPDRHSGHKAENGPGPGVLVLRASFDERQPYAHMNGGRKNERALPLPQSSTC

B1: vectorized Teprotumumab (secreted from HEK-293 cells transfected with teprotumumab plasmid construct (antibody, V domains shown)
VH: QVELVESGGGVVQPGRSQRLSCAASGFTFSSYGMHWVRQAPGKGLEWVAIIWFDGSSTYYADSVRGRFTISRDNSKNTLYLQMNSLRAEDTAVYFCARELGRRYFDLWGRGTLVSVSS
VL: EIVLTQSPATLSLSPGERATLSCRASQSVSSYLAWYQQKPGQAPRLLIYDASKRATGIPARFSGSGSGTDFTLTISSLEPEDFAVYYCQQRSKWPPWTFGQGTKVESKR
On to B1, for which the “reduction in IGF-1R activation (IGF-1R phosphorylation) by IGF in HT-1080 cells, MSD Insulin Signaling Panel (Phospho Protein)” value turned out to be 4 fold.
